Substrate in series [1]: CCO
Briefly: purified protein. Conditions: 330 µM NAD+, 8 µM PMS, 330 µM NBT, 0.1% gelatin, 100 mM Tris-HCl pH 8.6, ~22 °C.

Substrate in series [2]: CCCCO
As to the kind of experiment: purified protein. The class given is biochemical, Pseudothermotoga hypogea. The settings on record: NADP+ co-substrate, CAPS pH 11.6, 1 mM DTT, 0.1 mM FeCl2, 80 °C, anaerobic, aerobically purified enzyme.

Two proteins from publication PMC5821843, “Development of a high-throughput assay for rapid screening of butanologenic strains” (Scientific Reports, 2018) can be followed below.

B1: Sc ADH (Saccharomyces cerevisiae S288C) (protein)
chain: SIPETQKGVIFYESHGKLEYKDIPVPKPKANELLINVKYSGVCHTDLHAWHGDWPLPVKLPLVGGHEGAGVVVGMGENVKGWKIGDYAGIKWLNGSCMACEYCELGNESNCPHADLSGYTHDGSFQQYATADAVQAAHIPQGTDLAQVAPILCAGITVYKALKSANLMAGHWVAISGAAGGLGSLAVQYAKAMGYRVLGIDGGEGKEELFRSIGGEVFIDFTKEKDIVGAVLKATDGGAHGVINVSVSEAAIEASTRYVRANGTTVLVGMPAGAKCCSDVFNQVVKSISIVGSYVGNRADTREALDFFARGLVKSPIKVVGLSTLPEIYEKMEKGQIVGRYVVDTSK
In the case of B1, in the series “purified protein [1]”, the Km was determined as 22.7 ± 2.9 mM and the kcat was found to be 20.5 ± 2.37 s⁻¹.

B2: Th ADH (Th ADH_ae) (Pseudothermotoga hypogea DSM 11164 = NBRC 106472) (protein)
chain: MENFVFHNPTKLIFGKGTIPKIGEEIKSFGIKKVLMLYGGGSIKKNGVYDQVVESLKRNGIEWVEVSGVKPNPVLSKVHEAIEVCRKENVEAVLGVGGGSVIDSAKAIAAGVLYEGDIWDAFAGKHKINNALPVFAILTISATGTEMNGNAVVTNEKTQEKWAISAKCLYPRVSIIDPTAQFSLPKEQTVYGAVDAIAHTLEYYFDGSDSDIQNQISESIIRSIMKSTEVLIDNPQDYEARANFAWCATIALNGLTAAGRKGGDWSCHKIEHSLSALYDIAHGAGLAIVFPAWMRYVYKQKPQQFERFAKHVFSIDAVGEEAILKGIDAFKAWLRKVGAPVSLRDVGIPAQDIDRIVENVMKQGPSFGVLKKLGKEDVKQILLIASQ
notes: ORF in pET-33b, N-terminal His6 tag (kept), E. coli BL21(DE3) Rosetta grown anaerobically, purified aerobically; ~42 kDa
Consider B2, for which, in the series “purified protein [2]”, the Km was 34.1 ± 0.6 mM and the kcat is 3.943 ± 0.0867 s⁻¹.
